Experimental data as given in patent US20230203170A1 (DRAGONBOAT BIOPHARMACEUTICAL SHANGHAI, published 2023).
Positions count from the first letter of the chain named. In names and notes the source's numbering stands.

Columns and labels:
[1] = molecular target: full-length mouse CSF-1R (RefSeq ID NP_001032948) expressed on HEK293F cells (mouse) (UniProt P09581); assay: flow cytometry on HEK293F cells transiently expressing full-length mouse CSF-1R (IRES-EGFP vector), IgG at 100 nM, Alexa Fluor 647 anti-human Fc detection [Conti.]
[2] = molecular target: T1, full-length mouse CSF-1R (RefSeq ID NP_001032948) expressed on HEK293F cells (mouse, UniProt P09581 20-977); assay: flow cytometry on transfected HEK293F cells
T1 construct: whole, on cells
T1 sequence (looked up): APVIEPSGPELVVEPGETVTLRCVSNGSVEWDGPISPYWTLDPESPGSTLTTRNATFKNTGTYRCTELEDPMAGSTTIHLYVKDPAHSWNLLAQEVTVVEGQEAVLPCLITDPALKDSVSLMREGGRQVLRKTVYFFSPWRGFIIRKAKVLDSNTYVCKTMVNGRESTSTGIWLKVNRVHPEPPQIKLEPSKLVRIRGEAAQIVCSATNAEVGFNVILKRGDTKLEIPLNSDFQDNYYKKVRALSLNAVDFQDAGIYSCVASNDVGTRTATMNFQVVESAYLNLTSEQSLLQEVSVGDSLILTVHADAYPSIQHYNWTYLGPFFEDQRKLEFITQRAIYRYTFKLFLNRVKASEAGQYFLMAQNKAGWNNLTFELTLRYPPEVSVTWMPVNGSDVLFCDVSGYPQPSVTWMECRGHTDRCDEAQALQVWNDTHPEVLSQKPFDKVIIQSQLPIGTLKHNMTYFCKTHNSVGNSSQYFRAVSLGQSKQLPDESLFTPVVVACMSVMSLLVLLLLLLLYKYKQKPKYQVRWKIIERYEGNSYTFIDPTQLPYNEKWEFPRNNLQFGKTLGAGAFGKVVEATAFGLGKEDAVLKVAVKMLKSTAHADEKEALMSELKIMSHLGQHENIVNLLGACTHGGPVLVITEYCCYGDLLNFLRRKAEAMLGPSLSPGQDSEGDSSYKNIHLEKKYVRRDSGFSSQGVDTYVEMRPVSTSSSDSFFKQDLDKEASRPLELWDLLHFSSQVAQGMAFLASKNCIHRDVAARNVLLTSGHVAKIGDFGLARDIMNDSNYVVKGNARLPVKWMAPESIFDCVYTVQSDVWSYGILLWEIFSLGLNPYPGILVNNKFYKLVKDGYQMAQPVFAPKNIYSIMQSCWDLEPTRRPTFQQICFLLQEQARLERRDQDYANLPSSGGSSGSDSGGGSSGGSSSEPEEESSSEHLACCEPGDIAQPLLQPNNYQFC
Description: (§1) The specificities of the antibodies were also assessed against human, monkey and mouse CSF-1R that are transiently expressed on the surface of HEK293F cells (FIG. 1). Briefly, HEK293F cells were transfected with a plasmid expressing full-length human, monkey (RefSeq ID XP_015307616) or mouse (RefSeq ID NP_001032948) CSF-1R from a bicistronic IRES vector. EGFP was used to identify the transfected cells. After 40 hrs, the transfected cells were harvested and then washed once with 1% PBSA buffer (1% (w/v) BSA in 1×PBS). Cells were then incubated with various IgGs (each at 100 nM) for 1 hr at room temperature, washed once with pre-chilled 1% PBSA buffer, and incubated with Alexa Fluor® 647 conjugated mouse anti-human Fc antibodies for 30 min on ice. The cells were washed once prior to analysis by flow cytometry (Beckman® CytoFlex).

[3] = molecular target: T2, human CSF1R-His (Acrobiosystem, CSR-H5228) (human, UniProt P07333 20-512, limits assumed); assay: SPR Biacore T200; IgG captured by anti-human Fc, CSF1R-His as analyte, 1:1 fit
T2 construct: Bought protein; The catalogue number is printed only for the SPR assay; also called human CSF-1R protein; not shown: His tag
Text: The specific binding affinity and kinetics of antibodies against human CSF-1R protein were examined by surface plasmon resonance (SPR) analysis using a Biacore™ T200 instrument (GE, USA) according to the manufacturer’s guidelines. Anti-Human IgG (Fc) antibody (Sigma, I2136) was immobilized on CM5 chips according to the instructions of Amine Coupling kit (GE Biacore #BR-1000-50). The immobilized Anti-Human IgG (Fc) antibody was used to capture the antibodies. […] The running buffer used was 0.01 M HEPES, 0.15 M NaCl, 3 mM EDTA, 0.05% (v/v) surfactant P20, pH 7.4. Corresponding controls were conducted in each case using a blank flow cell with no protein captured for “background” subtraction. The association and dissociation curves were fitted to a 1:1 Langmuir binding model using Biacore T200 Evaluation Software (GE, USA) according to the manufacturer’s guidelines.

[4] = molecular target: T1, full-length mouse CSF-1R (RefSeq ID …); assay: flow cytometry on HEK293F cells transiently expressing full-length mouse CSF-1R (IRES-EGFP vector), Alexa Fluor 647 anti-human Fc detection [Conti.]
Description: as §1

[5] = molecular target: T3, full-length human CSF-1R expressed on cells (human, UniProt P07333 20-972); assay: flow cytometry on HEK293F cells transiently expressing full-length human CSF-1R (IRES-EGFP vector), IgG at 100 nM, Alexa Fluor 647 anti-human Fc detection [Conti.]
T3 construct: whole, on cells
Description: as §1

[6] = molecular target: full-length monkey CSF-1R (RefSeq ID XP_015307616) expressed on HEK293F cells (monkey, UniProt A0A2K5WG90 20-976); assay: flow cytometry on HEK293F cells transiently expressing full-length monkey CSF-1R (IRES-EGFP vector), IgG at 100 nM, Alexa Fluor 647 anti-human Fc detection [Conti.]
Chain of full-length monkey CSF-1R (RefSeq ID XP_015307616) expressed on HEK293F cells (A0A2K5WG90 entry or part of it limits assumed, form in doubt): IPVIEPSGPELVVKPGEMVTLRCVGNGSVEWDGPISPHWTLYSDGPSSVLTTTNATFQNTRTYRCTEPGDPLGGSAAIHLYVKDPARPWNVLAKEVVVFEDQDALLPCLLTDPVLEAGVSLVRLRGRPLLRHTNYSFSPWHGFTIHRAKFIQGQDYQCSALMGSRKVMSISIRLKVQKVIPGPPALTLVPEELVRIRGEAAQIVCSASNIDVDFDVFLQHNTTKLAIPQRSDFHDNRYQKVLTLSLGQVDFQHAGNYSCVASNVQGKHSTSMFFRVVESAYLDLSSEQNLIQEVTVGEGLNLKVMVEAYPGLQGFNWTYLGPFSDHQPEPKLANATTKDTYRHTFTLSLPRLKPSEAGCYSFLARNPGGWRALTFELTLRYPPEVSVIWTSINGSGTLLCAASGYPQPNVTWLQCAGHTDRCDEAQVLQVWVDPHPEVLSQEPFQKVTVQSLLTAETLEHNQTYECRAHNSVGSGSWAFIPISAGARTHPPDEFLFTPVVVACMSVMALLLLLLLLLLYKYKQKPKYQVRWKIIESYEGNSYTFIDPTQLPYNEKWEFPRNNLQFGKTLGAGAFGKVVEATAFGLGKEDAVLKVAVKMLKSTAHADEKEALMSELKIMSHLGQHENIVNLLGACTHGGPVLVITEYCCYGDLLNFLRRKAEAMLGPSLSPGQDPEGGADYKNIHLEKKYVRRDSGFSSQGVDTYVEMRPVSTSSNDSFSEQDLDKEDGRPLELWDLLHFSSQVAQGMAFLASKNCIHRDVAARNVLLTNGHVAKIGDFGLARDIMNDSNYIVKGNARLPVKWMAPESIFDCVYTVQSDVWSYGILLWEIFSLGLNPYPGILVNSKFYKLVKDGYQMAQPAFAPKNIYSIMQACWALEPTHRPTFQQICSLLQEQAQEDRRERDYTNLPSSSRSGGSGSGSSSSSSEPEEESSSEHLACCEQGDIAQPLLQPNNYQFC
Description: as §1

## Isotype Ctrl (antibody)
[1]
  percent of cells in the upper right quadrant (APC Ab binding positive, FITC Ag display positive): 0.17%

B1: TY21431 (antibody, human IgG4, V domains shown)
VH: EVQLVESGGGLVQPGGSLRLSCAASGFTFTDYAIHWVRQAPGKGLEWVSVISGYGSSTYYADSVKGRFTISRDNSKNTLYLQLNSLRAEDTAVYYCARGSYSSVYFDVWGQGTLVTVSS
VL: DIQLTQSPSSLSASVGDRVTITCKASQDVRTAVAWYQQKPGKAPKLLIYAASSLQSGVPSRFSGSGSGTDFTLTISSLQPEDFATYYCQQSYPIPFTFGQGTKVEIK
notes: Human IgG4 isotype with S241P mutation
[2]
  binding result: no binding (tested: 100 nM)
[3]
  Kd: 20.9 nM

B2: TY21430 (antibody, human IgG4, V domains shown)
VH: EVQLVESGGGLVQPGGSLRLSCAASGYSITSGHHWAWIRQAPGKGLEWVSSISGSGSTTYYADSVKGRFTISRDNSKNTLYLQLNSLRAEDTAVYYCARGSYYGAGSFDYWGQGTLVTVSS
VL: DIQLTQSPSSLSASVGDRVTITCRASQGITSALAWYQQKPGKAPKLLIYDASSLESGVPSRFSGSGSGTDFTLTISSLQPEDFATYYCQQYYPWPWTFGQGTKVEIK
notes: as for B1
[3]
  Kd: 8.35 nM
[4]
  binding result: no binding (tested: 100 nM)
[5]
  percent of cells in the upper right quadrant (APC Ab binding positive, FITC Ag display positive): 41.2%
[6]
  percent of cells in the upper right quadrant (APC Ab binding positive, FITC Ag display positive): 32.3%

B3: TY21432 (antibody, human IgG4, V domains shown)
VH: EVQLVESGGGLVQPGGSLRLSCAASGYTFSSYAIHWVRQAPGKGLEWVSVISGAGSSTYYADSVKGRFTISRDNSKNTLYLQLNSLRAEDTAVYYCARRTPAGNYFDYWGQGTLVTVSS
VL: B2 VL with T30S, S31R, A32W, Q89E, Y92L, P93E, W94V, W96P
notes: as for B1
[3]
  Kd: 13.8 nM
[4]
  binding result: no binding (tested: 100 nM)
[5]
  percent of cells in the upper right quadrant (APC Ab binding positive, FITC Ag display positive): 41.7%
[6]
  percent of cells in the upper right quadrant (APC Ab binding positive, FITC Ag display positive): 28.8%
